In the nanobody polyreactivity screen of Harvey et al. (2022):

Assay: yeast display, Sf9 membrane polyspecificity reagent, FACS + sequencing; frameworks hold sequencing errors
Summary of the method: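 A nanobody's polyreactivity label depends on the gate it was sorted from. Yeast display cells were stained with 10% biotinylated, detergent-solubilized Sf9 membrane reagent for 1 hour at 4 °C, enriched on streptavidin microbeads and sorted by FACS. The low and high (top ~1%) gates were set on anti-HA fluorescence for expression and streptavidin fluorescence for reagent binding.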

QVQLVEAGGGLVQAGGSLRLSCADCVSTGVNTMGWYRQAPGKERELVDAIRATGGSTYYADSVKGRFTISRDNAKNTVYLQMNSLKPEDTAVYYCAAKWFRLYLRQDRYYYWGQGTQVTVSS
polyreactivity (PSR sort gate): high polyreactivity

QVQLVESGGGLVQAGGSLRLSCAASGRIFVQYAMGWNRQAPGKERELVAAISGSGGRTYYADSVKWRFTISRDNAKNTVYLQMNSLKTEDTAVFYCAARSSTGVSFWKPYYYWGQGTQVTLSS
polyreactivity (PSR sort gate): high polyreactivity

QVQLVESGGGLVQAGGSLRLSCAASGSIFTTYAMGWYRQAPGKERELVAAISRAGDTTYADSVKGRFTISRDNAKNTVYLQRNSLKPEDTAVYYWGQGTQVTVSS
polyreactivity (PSR sort gate): low polyreactivity

QVQLVESGGGLVQAGGSLRLSCAASGRIFHFYVMGWYRQAPGKERELVASITRGGNTNYADSVKGRFTISRDNAKNTVYLQMNSLKPEDTAVYYCNGEGYYTRDDSWGQGTQVTVSS
polyreactivity (PSR sort gate): low polyreactivity

QVQLVESGGGLVQAGGSLRLSCAASGSTFYSNAMGWYRQAPGKERELVASISWSSGSTYYADSVKGRFTISRDNAKNTVYLQMNSLKPDDTAVYYCATDAGGPYRFGYWGQGTQVTVSS
polyreactivity (PSR sort gate): low polyreactivity

QVQLVESGGGLVQAGGSLRLSCAASGSTFYKYAMGWYRQAPGKERELVASISRSGGSTSYADSVKGRFTISRDNAKNTVYLQMNSLKPEDTEVYYCAATWRQHPGSMGYWGQGTQVTVSS
polyreactivity (PSR sort gate): high polyreactivity

QVQLVESGGGLVQAGGSLRLICAASGRTVYRYAMGWYRQAPGKERELVAAITTSGGSTYYADSVKGRFTISRDNAKKTVNIQMNSLKPEDTAVYYCARRVYGYYIPYNYWGKGTQVTVSS
polyreactivity (PSR sort gate): high polyreactivity

QVQLVDSGGGLVQAGGSLRLSCAASGRTFTVYAMGWYRQAPGKERELVASISGSSGSTDYADSVKGRFTISRDNAKNTVYLQMNSLKPEDTAVYFCAKASSATRYVQLRQDYDYWGQGTQVTVSS
polyreactivity (PSR sort gate): low polyreactivity

QVQLVESGGGLVQAGGSLRLSCAASGLTFAKYAMGWYRQEPGKEREFVAAITYSGGTTYYADSVKGRFTISRDNAKNTVYLQMNSLKPEDTAVYYCNTRSTLGYYWGQGTQVTVSS
polyreactivity (PSR sort gate): high polyreactivity

QVQHVESGGGLVQAGGSLRLSCAASGRIFSSNAMGWYRQAPGKERELVASITSGGNTNYADSVKGRFTISRDNAKNTVYLQMNSLKPEDTAVYYCAALSKTRCGYWGQGTQVTVSS
polyreactivity (PSR sort gate): high polyreactivity

QVQLVESGGGLVQAGGSLRLSCAASGSIFVIYAMGWYRQAPGKERELVAAITWNGGSTVYADSVKGRFTISRDNAKNTVYLQMNSLKPEDTAVYSCNAVAVSNSGWEYDYWGQGTQVTVSS
polyreactivity (PSR sort gate): low polyreactivity

QVQRVESRGGLVQAGGTLRLSCAASGSTFGVNAKGCYSQAPGKDRELVATISRGTSTNYADSVKGRFTISRDNAKNTVYLQMNSLKPEDTAVYYCAKRVFYPGAYRYYYCGQGTQVTVSS
polyreactivity (PSR sort gate): high polyreactivity

QVQLVESGGGLVQAGGSLRLSCAASGSTFVDYAMGWYRQAPGKERELVAAINERGGSTYYADSVKGRFTISRDNAKNTVYLQMNSLKPEDTAVYYCAKQLWVGVKYDYWGQGTQVTVSS
polyreactivity (PSR sort gate): low polyreactivity

QVQLVESAVGLVQAGGSLRLSCAASGRIFYFNAMGWYRQAPGKERELVAAISSSGTTYYADSVKGRFTISRDNAKNTVYLQMNSLKPEDTAVYYCAAGYYGHDPRNRYRYNYWGQGTQVTVSS
polyreactivity (PSR sort gate): high polyreactivity

QVQLVESGGGLVQAGGSLLLSCAASGRTFAPYAMGWYRQAPGKERELVAAISSGGGNTYYADSVKGRFTISRDNAKNTVYLQMNSMKPEDTAVYYCAKPRARQDFDYWGQGTKVTVSS
polyreactivity (PSR sort gate): high polyreactivity

QVQLVESCGGLVQAGGSLRLSCSSSGRIFRGNAMGWYRQAPGKERELVAAILTGVTTYYADSVKGRFTISRDNAKNTVYLQTNSLKPEDTAVYYCAAERPSRRSGYEYWGQGTQVTVSS
polyreactivity (PSR sort gate): low polyreactivity

QVQIVESGGGLVQAGGSLRLSCAPSGRTFVGFAKGWYRQAPGKERELVAAISRTGGSTYYADSVKGRFTISRDNAKNTVYLQMNSLKPEDTAVYYCNAVTLSSTYGGHDYWGQGTQVTVSS
polyreactivity (PSR sort gate): high polyreactivity

QVQLVETGGGLVQAGGSLRLSCAASGSIFSGNAMGRSRPAPGKERELVGAITGSGGSTYYADSVKGRFTITRDNAKNTVYLQMNSLKPVDTAVYYCAVLFRTFYYWGQGTQVTVSS
polyreactivity (PSR sort gate): high polyreactivity

QVQLVESGGGLVQAGGSLRLSCAASGSIFNPYDMGWYRQAPGKERELVAAIDWSGGSTYYADSVKGRFTISRDNAKNTVYLQMNSLKPEDTAVYYCNAESYQDTLFGADNDYDYWGQGTQVTVSS
polyreactivity (PSR sort gate): low polyreactivity

QVQLVESGGGLVQAGGSLRLSCAASGRIFPRYAMGWYRQATGKERELVATISSGGSTYYADSVKGRFTISRDNAKNTVYLQMNSLKPEDTAVYYCAARKRPYTVINGMDYWGQGTQVTVSS
polyreactivity (PSR sort gate): low polyreactivity

QVQLVESGGGLVQAGGSLRLTCAASGSTFPVYAMGWSRQAPGKERELVASISSGADTIYADSVKGRFTISRDNAKNTVYLQMNSLKPEDTSVYYCAVYRPGLTYYDYDYWGQGTQVTVSS
polyreactivity (PSR sort gate): low polyreactivity
